Consider ten molecules from paper PMC3343272, “Asymmetric Mode of Ca^2+-S100A4 Interaction with Nonmuscle Myosin IIA Generates Nanomolar Affinity Required for Filament Remodeling” (Structure(London, England:1993), 2012).

The chains are these.
B1: M111 fragment of nonmuscle myosin IIA heavy chain (residues Q1850-E1960) (domain or fragment, UniProt P35579 1850-1960, looked up)
chain: QVDDERRNAEQYKDQADKASTRLKQLKRQLEEAEEEAQRANASRRKLQRELEDATETADAMNREVSSLKNKLRRGDLPFVVPRRMARKGAGDGSDEEVDGKADGAEAKPAE
notes: nonmuscle myosin IIA heavy chain, residues Q1850-E1960; source: expressed and purified as described previously (Badyal et al., 2011)
B2: M111, nonmuscle myosin IIA heavy chain fragment (residues Q1850–E1960) (domain or fragment, UniProt P35579 1850-1960, looked up)
chain: B1 chain
notes: nonmuscle myosin IIA (NMIIA) heavy chain, residues Q1850-E1960
B3: S100A4 (natural protein)
chain: not shown
notes: S100A4; the NMR analysis speaks of residues 1-101; The His-tag is named only for the SPR experiment (two His-tags in the dimer); also called WT S100A4; u-S100A4; source: expressed and purified as described previously (Badyal et al., 2011)
B4: M200 fragment of nonmuscle myosin IIA heavy chain (Q1761-E1960) (domain or fragment, UniProt P35579 1761-1960, looked up)
chain: QINTDLNLERSHAQKNENARQQLERQNKELKVKLQEMEGTVKSKYKASITALEAKIAQLEEQLDNETKERQAACKQVRRTEKKLKDVLLQVDDERRNAEQYKDQADKASTRLKQLKRQLEEAEEEAQRANASRRKLQRELEDATETADAMNREVSSLKNKLRRGDLPFVVPRRMARKGAGDGSDEEVDGKADGAEAKPAE
notes: nonmuscle myosin IIA heavy chain, residues Q1761-E1960; forms a coiled coil and filaments; source: expressed and purified as described previously (Badyal et al., 2011)
B5: S100A4 C81D (natural protein)
chain: not shown
notes: source: expressed and purified as described previously (Badyal et al., 2011)
B6: M39 peptide of nonmuscle myosin IIA heavy chain (residues Q1897-A1935) (peptide)
peptide: QRELEDATETADAMNREVSSLKNKLRRGDLPFVVPRRMA
notes: nonmuscle myosin IIA heavy chain (NM-MHC IIA), residues Q1897-A1935; also called u-M39; WT M39; source: synthetic peptide; bought: GL Biochem Ltd (Shanghai, China), purity >95% by HPLC
B7: M39, nonmuscle myosin IIA heavy chain peptide (residues Q1897–A1935) (peptide, UniProt P35579 1897-1935, looked up)
peptide: B6 peptide
notes: nonmuscle myosin IIA (NMIIA) heavy chain, residues Q1897-A1935; Unmodified (no fluorescent label); also called u-M39; source: synthetic peptide
B8: S100A4 V77D (natural protein)
chain: MACPLEKALDVMVSTFHKYSGKEGDKFKLNKSELKELLTRELPSFLGKRTDEAAFQKLMSNLDSNRDNEVDFQEYCDFLSCIAMMCNEFFEGFPDKQPRKK
notes: as for B5
B9: M70 fragment of nonmuscle myosin IIA heavy chain (residues A1868-G1938) (domain or fragment, UniProt P35579 1868-1938, looked up)
chain: ASTRLKQLKRQLEEAEEEAQRANASRRKLQRELEDATETADAMNREVSSLKNKLRRGDLPFVVPRRMARKG
notes: nonmuscle myosin IIA heavy chain, residues A1868-G1938; small print, not read surely; also called u-M70; 15N-M70; source: recombinant; expressed and purified as described previously (Badyal et al., 2011)
B10: M70, nonmuscle myosin IIA heavy chain fragment (residues A1868–G1938) (domain or fragment, UniProt P35579 1868-1938, looked up)
chain: B9 chain
notes: nonmuscle myosin IIA (NMIIA) heavy chain, residues A1868-G1938; also called u-M70; 13C,15N-M70; source: recombinant, unlabeled, 15N-labeled and 13C,15N-labeled

Data set [1] deals with the molecule itself. As to the kind of experiment: SEC-MALLS; Superdex 75 10/300, 20 mM MES pH 6.1, 150 mM NaCl, 0.5 mM DTT, 0.7 ml/min; 75 µM M70, 150 µM M111, 50 µM S100A4, 50 µM S100A4 V77D, 50 µM S100A4 C81D loaded.
The target in data set [2] is T1, S100A4, wild type, Ca^2+-bound dimer (recombinant) (UniProt P26447 1-101).
T1 construct: also called WT; u-S100A4; source: recombinant, unlabeled and 13C,15N-labeled; purified
As to the kind of experiment: SEC-MALS; SEC-MALLS with refractive index and absorbance detection; S100A4 and myosin fragment mixed (1:1 molar ratio for M111). Conditions: both partners purified.

For data set [3], the target named is B4. As to the kind of experiment: competitive turbidity assay; 12.5 µM M200 diluted into 100 mM NaCl, 20 mM Hepes, 1 mM Mg2+, 100 µM Ca2+; turbidity at 300 nm; 25 µM S100A4 (monomer) added at 800 s, 10 µM M39 added at 1450 s. The conditions noted are these: both partners purified.
Data set [4] concerns the molecule itself. Described as above.
Data set [5] deals with the molecule itself. The data set can be described thus: SEC-MALLS; Superdex 75 10/300, 20 mM MES pH 6.1, 150 mM NaCl, 0.5 mM DTT, 0.7 ml/min; 75 µM M70, 150 µM M111, 50 µM S100A4, 50 µM S100A4 V77D, 50 µM S100A4 C81D loaded. This is another data set of the same source.
In data set [6] the target is B3. The data set can be described thus: stopped-flow Quin-2 fluorescence (Ca2+ dissociation); M39 premixed with 13 µM S100A4 (monomer concentration) and 50 µM Ca2+, mixed with 100 µM Quin-2; 20 mM NaCl, 10 mM Hepes, 1 mM MgCl2, pH 7.5, 20 °C; amplitude of the fast phase against [M39]; mutants with up to 50 µM M39. The conditions noted are these: both partners purified.

For data set [7], the target named is B3. As to the kind of experiment: kinetic scheme (estimates or values required for thermodynamic balance); apo S100A4 dimer (no Ca2+ bound); values in blue in the scheme, not experimental measurements. The conditions noted are these: both partners purified.
Data set [8] concerns the target B3. The data set can be described thus: competitive turbidity assay; 12.5 µM M200 diluted into 100 mM NaCl, 20 mM Hepes, 1 mM Mg2+, 100 µM Ca2+; turbidity at 300 nm; 25 µM S100A4 (monomer) added at 800 s, 10 µM M39 added at 1450 s. Conditions: both partners purified.
For data set [9], the target named is B3. The data set can be described thus: SPR; Biacore X100, S100A4 (0.5 µM) coupled by its His-tags to a Ni-NTA chip; M39 at 1, 3, 9 and 27 nM; 20 mM MES pH 6.1, 150 mM NaCl, 5 mM CaCl2, 0.5 mM TCEP, 50 µM EDTA, 0.005% Surfactant P20; fit to 1:1 Langmuir model. Conditions: both partners purified.
For data set [10], the target named is B3. As to the kind of experiment: kinetic scheme (estimates or values required for thermodynamic balance); S100A4 dimer with a single Ca2+ bound; values in blue in the scheme, not experimental measurements. The conditions noted are these: both partners purified.
The target in data set [11] is T1, S100A4, wild type, Ca^2+-bound dimer …. The data set can be described thus: SPR; sensorgrams at nanomolar concentrations of M39; simultaneous fit to a single site-binding model; n = 3. The conditions noted are these: both partners purified.
For data set [12] the target is unchanged. The data set can be described thus: ITC + SPR + other: kinetic assays; limit that the paper gives as compatible with all its methods. Conditions: both partners purified.
The target is the same in data set [13]. As to the kind of experiment: kinetic assays; kinetic assays similar to those of Badyal et al., 2011 (Figures S1I–S1L). The conditions noted are these: both partners purified.
For data set [14] the target is unchanged. The data set can be described thus: ITC; 10 μM S100A4 in the cell, 75 μM M39 in the syringe; single site-binding model; the paper calls the KD an upper limit. The conditions noted are these: both partners purified.
Data set [15] deals with T2, S100A4 V77D mutant (studied in vitro) (UniProt P26447 1-101, V77D).
T2 construct: Parent: m1
The data set can be described thus: NMR titration; S100A4 V77D and C81D mutants (Figures S3C and S3D); the myosin fragment is not given. Conditions: both partners purified.

The target in data set [16] is T3, S100A4 C81D mutant (studied in vitro) (UniProt P26447 1-101, C81D).
T3 construct: Parent: m1
Described as above. Conditions: both partners purified.

Several values for one entry are separate records, joined by “and”; a condition that tells them apart may be missing. Equal entries are not always repeated. Where two headings read alike, the source gives them in different places.

Consider B1, for which the “stoichiometry N” value in data set [1] was 2.

In the case of B2, the “stoichiometry N” value in data set [2] is 0.5 myosin fragment per S100A4 subunit.

Consider B3, for which, in data set [3], the binding result is “binds”.

In the case of B4, the binding result in data set [4] is listed as “binds”.

For B5, the “stoichiometry N” value in data set [5] is 2.

Take B6: the Kd in the data set with S100A4 [6] was less than 0.5 µM; with S100A4 [7], 10000 µM; with S100A4 [8], less than 0.01 µM; with S100A4 [9] it was 0.0004 µM; in the data set with S100A4 [10], 1 µM. In the data set with S100A4 [6], the “stoichiometry N” value is 2.6 S100A4 monomers per M39.

On to B7, for which the Kd in data set [11] was 0.00024 ± 7e-05 µM; in data set [12] it was not above 0.001 µM; in data set [13], approximately 0.0001 µM; in [14], 0.0059 µM and 0.004 µM; in data set [15], approximately 100 µM; in data set [16] it was approximately 100 µM. The “stoichiometry N” value in [14] came to 0.55 ± 0.06 M39/S100A4.

In the case of B8, the “stoichiometry N” value in data set [5] is 2.

B9: the “stoichiometry N” value in data set [1] stood at 2.

Take B10: in data set [2], the “stoichiometry N” value was 0.5 myosin fragment per S100A4 subunit.
